The DeepSol protein solubility set

Experiment: soluble on expression in E. coli; label from the status in PepcDB or PDB records

Row | Sequence | soluble on expression in E. coli
1 | MIVNRNPFEQLPSLAINPEDFDVLYSAETFRTRLLDAISKATSRIYLVALYLEDDEAGREILTALYEAKQRNPGLDINICVDWHRAQRGLIGAETSEGNSALYKAFADQYQHAIPVYGIPVRGREVFGVLHLKGFVVDDTVIYSGASLNNVYLQYHGRYRFDRYHVIKHKSLADTMVNFVQNEMIAHPAVNDLADRDKPETKEIKSAIRQLRSSLAQANYQFAHEAAAEDKVKITPLVGLGKRRNLLNQQIVKLLAAAQNEIFICTPYFNFPKSIHREVKRAMKRGVKVTIVVGDKTANDFYISPEEDFKTIGGLPYLYEVNLRRFAKANEANIAARKLSVHLWKHENNSFHLKGIWVDKRYMLLTGNNLNPRAWSLDLENGLLIQDDYANLTHKFEDEVARILEHTQLICTYKQLEKVEDYPLAVQKLVRKITRLKADGVLKRILLEHHHHHH | soluble
2 | MIVPGGFPAPVTGSAVAASPPLPTVRLLSLDAHGRVLDWINWQDAACLYARDAVSWTLGEPCMQIHGGVSRLTGERSVLELHPIIAARGHARSRALDPTPTLTNTALFARDSQLCMYCGQHFSRPHLTRDHVMPVSKGGRDSWENVVTACFQCNSRKANRTPQQAHMPLLAVPYRPSWIEHLILSNRNILSDQMAFLRAQLPKRSKLSLLEHHHHHH | not soluble
3 | MIVQKELVAIYDYEVPVPEDPFSFRLEIHKCSELFTGSVYRLERFRLRPTFHQRDREDADPLINDALIYIRDECIDERKLRGESPETVIAIFNRELQNIFNQEIE | soluble
4 | MIVSFMENYSDALNDIFQSLADPTRRAVILRLGGGEASIGTLAEPFAMALPSFMKHIRQLEEAGLIVTRKQGRVRFCSLEKQRFSMLDGWLSQQRAVWEGRTDRLEQFVMAQQDRMSSKGENDQ | not soluble
5 | MIVTTAGRTNKEMTDYANEVAAELNASFVKRNDIPVHKLHEQYEQDVLVVGKNRLAIYPKGTEESFFFHPNSAMFRVKRLMRGEHDPFVQATQLERGMTVLDCTLGMASDSIVASYVVGESGKVTGLEGNEYMAYIMENGLKTWSSSVSEIDEAMQRIQVKQTEHFSFLAQCEDNSYDVVYLDPMFEETVIESDGIKGLKHFALYHDITDETIAEAKRVARKRVVLKDHFRSSRFEKHNFYVYKRKSAKFHFGVIDPC | not soluble
6 | MIYEFCAENVTLLEKAMQAGARRIELCDNLAVGGTTPSYGVTKAAVELAANYDTTIMTMIRPRGGDFVYNDLEIAIMLEDIRLTAQAGSQGVVFGALTADKKLDKPNLEKLIAASKGMEIVFHMAFDELSDEDQAEAIDWLSQAGVTRILTRAGVSGDSLEKRFVHYHRILEYAKGKIEILPGGGIDLENRQTFIDQVGVTQLHGTKVVFLEHHHHHH | soluble
7 | MKAITLLSSGLDSVAALAIAAESLEIEMAITFDYGQRAGQREMEYSEKVCEHFGIEQRIIKLDWLGEITHTSLVNRDEEVPSLSFEDIDENSPSMITEYSAKAVWVPNRNGVMLNIAGSFAESRGCDYIVVGFNGEEAGTFPDNSRDYIQAVDNAFSYSTQNGVKVLAPLAEMGKTEIVKKALEAEAPLEYSWSCYHGGEIPCGKCESCVRRARAFKNIGIKDPLLERLGI | not soluble
8 | MKALHFGAGNIGRGFIGKLLADAGIELTFADVNQTVLDALNARHSYQVHVVGENEQVDTVSGVNAVSSIGDEVVDLIAEVDLVTTAVGPVVLERIAPAIAKGLAQRKAQGTERPLNIIACENMVRGTTQLKGHVFNALAEEHKAWVEAHIGFVDSAVDRIVPPSASATHDPLEVTVETFSEWIVDKTQFKGALPTIPGMELTDNLMAFVERKLFTLNTGHAITAYLGKLAGHQTIRDAILDEKIRAVVQGAMEESGAVLIKRYAFDPQKHAAYIQKILGRFENPYLKDDVERVGRQPLRKLSAGDRLIKPLLGTLEYGLPHRNLVKGIAAAMHFRSEDDPQAQELAALIADKGPQAALAQISGLDAASDVVAEAVNDYNAEK | not soluble
9 | MKAVGLVVEYNPFHNGHLYHAQTAKLQTGCDTAVAVMSGHFLQRGEPAVVSKWARTKMALQSGVDLVIELPYLYAVQKADIFARGSVSILNELECEALFFGSENGDIKPFLETAQLIDEHKHILNDRIKEELKKGASYPAAAAIAFSSILHTESALDLSKPNNILGYQYVTSILTGGYPMKPYTTARISSDYHDADLPEGENHIASATSIRKAMIGQNLEACLRFLPAASARELAAYRKSFGLWHTPESYFSYLKYSLSTVTARELQQVYEVEEGLEHRIIRSIRKSSSYQEFMELLKTKRYTWTRLQRMNTHILTRTKKQDMQKLLDNDKAPYIRLLGMTKKGQAYLSEKKKALSVPLVSKLSSFSHPALDLDVKASRIYSLPIEEPLRTEFDLQEYG | not soluble
